Measurements taken from paper PMC4417627 (Biochemistry, 2013).
Positions count from the first letter of the chain named. Like-named read-outs stand apart in the source and are kept apart here.

B1: 5xAla NEMO, recombinant full-length, C-terminal 6xHis (natural protein, human, UniProt Q9Y6K9 1-419, looked up)
chain: MNRHLWKSQLAEMVQPSGGPAADQDVLGEESPLGKPAMLHLPSEQGAPETLQRCLEENQELRDAIRQSNQILRERAEELLHFQASQREEKEFLMAKFQEARKLVERLGLEKLDLKRQKEQALREVEHLKRAQQQMAEDKASVKAQVTSLLGELQESQSRLEAATKEAQALEGRARAASEQARQLESEREALQQQHSVQVDQLRMQGQSVEAALRMERQAASEEKRKLAQLQVAYHQLFQEYDNHIKSSVVGSERKRGMQLEDLKQQLQQAEEALVAKQEVIDKLKEEAEQHKIVMETVPVLKAQADIYKADFQAERQAREKLAEKKELLQEQLEQLQREYSKLKASCQESARIEDMRKRHVEVSQAPLPPAPAYLSSPLALPSQRRSPPEEPPDFCCPKCQYQAPDMDTLQIHVMECIE
B2: 6xAla NEMO containing Cys76 (Cys76 added back into the 7xAla construct) (natural protein, human, UniProt Q9Y6K9 1-419, looked up)
chain: B1 chain with C54A, A76C, C347A
B3: 6xAla NEMO containing Cys11 (Cys11 added back into the 7xAla construct) (natural protein, human, UniProt Q9Y6K9 1-419, looked up)
chain: B1 chain with A11C, C54A, C347A
B4: 6xAla NEMO containing Cys54 (Cys54 added back into the 7xAla construct) (natural protein, human, UniProt Q9Y6K9 1-419, looked up)
chain: B1 chain with C347A
B5: 5xAla NEMO, full-length, expressed in NEMO-deficient mouse fibroblasts (natural protein, human, UniProt Q9Y6K9 1-419, looked up)
chain: B1 chain
B6: 6xAla NEMO containing Cys347 (Cys347 added back into the 7xAla construct) (natural protein, human, UniProt Q9Y6K9 1-419, looked up)
chain: B1 chain with C54A
B7: 7xAla NEMO, recombinant full-length, C-terminal 6xHis (natural protein, human, UniProt Q9Y6K9 1-419, looked up)
chain: B1 chain with C54A, C347A

Key:
[1] = target: IKKβ 680-756 (Homo sapiens) (UniProt O14920); experiment: ITC; details: cited from earlier work
[2] = target: IKKβ 680-756 (Homo sapiens) (UniProt O14920); experiment: SPR; details: cited from earlier work
[3] = target: IKKβ 701-745 (Homo sapiens) (UniProt O14920); experiment: SPR; details: cited from earlier work
cross-linking [4] = target: the molecule itself; experiment: cross-linking
cross-linking [5] = target: the molecule itself; experiment: cross-linking; remark: listed apart in the source
[6] = target: the molecule itself; experiment: fluorescence polarisation

Chain of IKKβ 680-756 (Homo sapiens) (O14920 680-756): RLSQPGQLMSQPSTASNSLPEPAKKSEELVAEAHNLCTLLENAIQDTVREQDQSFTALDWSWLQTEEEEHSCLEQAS
Chain of IKKβ 701-745 (Homo sapiens) (O14920 701-745): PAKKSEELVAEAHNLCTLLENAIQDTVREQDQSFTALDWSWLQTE

Molecule | stoichiometry N (cross-linking [4]) | further results
NEMO 38-196 (from UniProt Q9Y6K9) |  | Kd [1]: 1000 nM; Kd [2]: 3.4 nM
NEMO 2-200 (from UniProt Q9Y6K9) |  | Kd [3]: 76 nM
B1 | 2 | 
B2 | 2 | 
B3 | 2 | 
B4 | 2 | 
B5 |  | stoichiometry N (cross-linking [5]): 2
B6 | 2 | 
B7 | 2 | Kd [6]: < 5 nM
